We go through 1 substance from IntAct's records for PubMed 17070805.

In the assay the target is T1, npl4_human NPLOC4 (UniProt Q8TAT6).
T1 sequence: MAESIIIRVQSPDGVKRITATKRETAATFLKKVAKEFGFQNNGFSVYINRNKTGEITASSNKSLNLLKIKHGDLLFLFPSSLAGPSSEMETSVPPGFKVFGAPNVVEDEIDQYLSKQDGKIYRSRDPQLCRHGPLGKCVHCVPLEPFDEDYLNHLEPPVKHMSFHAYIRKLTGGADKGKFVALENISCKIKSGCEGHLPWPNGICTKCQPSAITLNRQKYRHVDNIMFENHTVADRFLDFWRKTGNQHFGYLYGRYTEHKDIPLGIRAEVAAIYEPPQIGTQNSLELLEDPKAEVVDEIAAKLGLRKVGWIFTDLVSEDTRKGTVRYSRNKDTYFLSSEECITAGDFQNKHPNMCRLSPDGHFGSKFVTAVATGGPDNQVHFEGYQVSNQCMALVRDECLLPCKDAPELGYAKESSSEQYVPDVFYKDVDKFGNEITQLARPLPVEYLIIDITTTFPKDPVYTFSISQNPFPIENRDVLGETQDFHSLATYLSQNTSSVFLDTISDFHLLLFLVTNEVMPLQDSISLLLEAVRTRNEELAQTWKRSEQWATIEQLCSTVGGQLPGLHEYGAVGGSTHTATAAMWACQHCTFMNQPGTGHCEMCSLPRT

With “Polyubiquitin-C (Homo sapiens) (from UniProt P0CG48) I44A”, the “effect of a mutation on the interaction” value is on record as “decreasing interaction”.
